Residue numbers refer to the chain shown, from its start.
B1: anti-hHGF monoclonal antibody 1D3 (antibody, mouse IgG1, kappa, V domains shown)
VH: EVQLVESGGGLVQPGGSLKLSCAASGFTFSDYYMSWVRQTPEKRLEWVAYISSGGGSTYYPDSVKGRFTISRDNAKNTLYLQMSSLKSEDTAIYYCVRQGDGYYGDYAMDYWGQGTSVIVSS
VL: DIQMTQSPASLSVSVGETVTITCRTSENIYSNLAWYQQKQGKSPQLLIYAATNLADGVPSRFSGSGSGTQFSLRINSLQSEDFGRYYCQHFWGTPYTFGGGTKLEIKR
notes: Murine IgG1 kappa from hybridoma
B2: anti-hHGF monoclonal antibody 1F3 (antibody, mouse IgG1, kappa, V domains shown)
VH: B1 VH with P14S, D31N, Y33F, I93M, I119T
VL: B1 VL with T25A, I48V, A50D, N53H, A55P, R74K, R85S, K103R
notes: as for B1
B3: Kappa Chimeric 2B8 / Heavy Hu2B8_Hv1-f.1 (antibody, human IgG1, kappa, V domains shown)
VH: EVQLVQSGAEVKKPGATVKISCKVSGYTFTTYWMHWVQQAPGKGLEWMGEINPTNGHTNYNEKFQGRVTITADTSTDTAYMELSSLRSEDTAVYYCATNYVGSIFDYWGQGTLVTVSS
VL: NIVMTQSPKSMSMSVGERVTLSCKASENVVSYVSWYQQKPAQSPKLLIYGASNRNTGVPDRFTGSGSATDFTLTISSVRAEDLADYHCGQSYNYPYTFGGGTRLEIKR
notes: also called Hu2B8 Hv1-f.1 + IgG1 Constant heavy chain with Chimeric 2B8 Kappa light chain
B4: Kappa Hu2B8_Kv3-15.1 / Heavy Hu2B8_Hv1-f.1 (antibody, human IgG1, kappa, V domains shown)
VH: B3 VH
VL: EIVMTQSPATLSVSPGERATLSCKASENVVSYVSWYQQKPGQAPRLLIYGASNRNTGIPARFSGSGSGTEFTLTISSLQSEDFAVYYCGQSYNYPYTFGQGTKLEIKR
notes: also called Hu2B8 Hv1-f.1 + IgG1 Constant heavy chain with Hu2B8 Kv3-15.1 + Kappa Constant light chain
B5: chimeric 2B8 (mouse variable regions with human IgG1 (G1m(17,1)) and Kappa (Km(3)) constant regions) (antibody)
heavy: not shown
light: NIVMTQSPKSMSMSVGERVTLSCKASENVVSYVSWYQQKPAQSPKLLIYGASNRNTGVPDRFTGSGSATDFTLTISSVRAEDLADYHCGQSYNYPYTFGGGTRLEIKRTVAAPSVFIFPPSDEQLKSGTASVVCLLNNFYPREAKVQWKVDNALQSGNSQESVTEQDSKDSTYSLSSTLTLSKADYEKHKVYACEVTHQGLSSPVTKSFNRGEC
notes: also called Chimeric 2B8 IgG1; Chimeric 2B8 Kappa (Km(3))
B6: Kappa Hu2B8_Kv3-15.1 / Heavy Chimeric 2B8 (antibody, human IgG1, kappa, V domains shown)
VH: QVQLQQPGAELVKPGTSVKLSCKASGYTFTTYWMHWVNQRPGQGLEWIGEINPTNGHTNYNEKFKSKATLTVDKSSSTAYMQLSSLTSEDSAVYYCARNYVGSIFDYWGQGTTLTVSS
VL: B4 VL
notes: also called Chimeric 2B8 IgG1 heavy chain with Hu2B8 Kv3-15.1 + Kappa Constant light chain
B7: Kappa Hu2B8_Kv1-39.1 / Heavy Hu2B8_Hv5-a.1 (antibody, human IgG1, kappa, V domains shown)
VH: EVQLVQSGAEVKKPGESLRISCKGSGYSFTTYWMHWVRQMPGKGLEWMGEINPTNGHTNYNPSFQGHVTISADKSISTAYLQWSSLKASDTAMYYCARNYVGSIFDYWGQGTLVTVSS
VL: DIQMTQSPSSLSASVGDRVTITCKASENVVSYVSWYQQKPGKAPKLLIYGASNRNTGVPSRFSGSGSGTDFTLTISSLQPEDFATYYCGQSYNYPYTFGQGTKLEIKR
notes: also called Hu2B8 Hv5-a.1 + IgG1 Constant heavy chain with Hu2B8 Kv1-39.1 + Kappa Constant light chain
B8: Kappa Hu2B8_Kv1-39.1 / Heavy Hu2B8_Hv1-f.1 (antibody, human IgG1, kappa, V domains shown)
VH: B3 VH
VL: B7 VL
notes: also called Hu2B8 Hv1-f.1 + IgG1 Constant heavy chain with Hu2B8 Kv1-39.1 + Kappa Constant light chain
B9: Kappa Chimeric 2B8 / Heavy Hu2B8_Hv5-a.1 (antibody, human IgG1, kappa, V domains shown)
VH: B7 VH
VL: B3 VL
notes: also called Hu2B8 Hv5-a.1 + IgG1 Constant heavy chain with Chimeric 2B8 Kappa light chain
B10: Kappa Hu2B8_Kv1-39.1 / Heavy Chimeric 2B8 (antibody, human IgG1, kappa, V domains shown)
VH: B6 VH
VL: B7 VL
notes: also called Chimeric 2B8 IgG1 heavy chain with Hu2B8 Kv1-39.1 + Kappa Constant light chain
B11: Kappa Hu2B8_Kv3-15.1 / Heavy Hu2B8_Hv5-a.1 (antibody, human IgG1, kappa, V domains shown)
VH: B7 VH
VL: B4 VL
notes: also called Hu2B8 Hv5-a.1 + IgG1 Constant heavy chain with Hu2B8 Kv3-15.1 + Kappa Constant light chain

Each binder was assayed against T1, recombinant human HGF (R&D Systems, Catalog No. 294-HGN-025) (human, UniProt P14210 32-728) (assay: cell-based or functional assay).
T1 sequence (P14210 32-728 limits assumed): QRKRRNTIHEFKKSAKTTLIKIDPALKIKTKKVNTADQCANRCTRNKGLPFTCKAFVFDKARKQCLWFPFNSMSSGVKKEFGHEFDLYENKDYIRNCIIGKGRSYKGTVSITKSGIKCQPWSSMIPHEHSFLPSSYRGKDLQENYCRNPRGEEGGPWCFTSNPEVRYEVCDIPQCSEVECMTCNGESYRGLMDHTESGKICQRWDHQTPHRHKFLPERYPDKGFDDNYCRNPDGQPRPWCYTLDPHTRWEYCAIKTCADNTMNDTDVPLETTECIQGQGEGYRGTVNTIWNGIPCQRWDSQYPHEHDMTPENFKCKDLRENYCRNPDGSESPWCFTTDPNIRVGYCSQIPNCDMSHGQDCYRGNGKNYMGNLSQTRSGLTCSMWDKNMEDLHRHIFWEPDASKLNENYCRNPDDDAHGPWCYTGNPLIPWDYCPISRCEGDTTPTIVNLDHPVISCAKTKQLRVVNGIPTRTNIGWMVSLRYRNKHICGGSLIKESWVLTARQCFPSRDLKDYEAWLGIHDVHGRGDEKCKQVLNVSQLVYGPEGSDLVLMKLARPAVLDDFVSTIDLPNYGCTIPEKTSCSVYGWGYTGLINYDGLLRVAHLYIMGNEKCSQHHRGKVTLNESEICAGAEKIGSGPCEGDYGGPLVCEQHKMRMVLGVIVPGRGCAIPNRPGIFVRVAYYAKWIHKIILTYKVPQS

EC50, inhibition of HGF-stimulated c-Met phosphorylation in PC-3 cells, Average of Two Trials	Binder
0.984 nM	B1
1.19 nM	B2

Each binder was assayed against hHGF-Fc G555E (recombinant hHGF protein containing a glycine to glutamate substitution at position 555) (human) (assay: SPR, antibody immobilized, HGF protein injected, 25 C).
Procedure: (§1) Each antibody was immobilized on a carboxymethylated dextran CM5 sensor chip (BIAcore, Catalog No. BR-1006-68) by amine coupling (BIAcore, Catalog No. BR-1000-50) using a standard coupling protocol according to manufacturer's instructions.
(§2) Analyses were performed at 25° C. using PBS (GIBCO, Catalog No. 14040-133) containing 0.05% surfactant P20 (BIAcore, Catalog No. R-1000-54), 2 mg/mL BSA (EMD, Catalog No. 2930) and 10 mg/mL CM-Dextran Sodium salt (Fluka, Catalog No. 86524) as running buffer. […] The resulting binding was determined as resonance units (RU) over baseline 30 seconds after the end of injection. […] Non-specific binding was monitored by comparing binding to a control surface where mouse IgG (Rockland, Catalog No. 010-0102) was immobilized using the same amine coupling procedure.

Chain of hHGF-Fc G555E (recombinant hHGF protein containing a glycine to glutamate substitution at position 555) (human) (chain, as listed by the source G555E G555E limits assumed): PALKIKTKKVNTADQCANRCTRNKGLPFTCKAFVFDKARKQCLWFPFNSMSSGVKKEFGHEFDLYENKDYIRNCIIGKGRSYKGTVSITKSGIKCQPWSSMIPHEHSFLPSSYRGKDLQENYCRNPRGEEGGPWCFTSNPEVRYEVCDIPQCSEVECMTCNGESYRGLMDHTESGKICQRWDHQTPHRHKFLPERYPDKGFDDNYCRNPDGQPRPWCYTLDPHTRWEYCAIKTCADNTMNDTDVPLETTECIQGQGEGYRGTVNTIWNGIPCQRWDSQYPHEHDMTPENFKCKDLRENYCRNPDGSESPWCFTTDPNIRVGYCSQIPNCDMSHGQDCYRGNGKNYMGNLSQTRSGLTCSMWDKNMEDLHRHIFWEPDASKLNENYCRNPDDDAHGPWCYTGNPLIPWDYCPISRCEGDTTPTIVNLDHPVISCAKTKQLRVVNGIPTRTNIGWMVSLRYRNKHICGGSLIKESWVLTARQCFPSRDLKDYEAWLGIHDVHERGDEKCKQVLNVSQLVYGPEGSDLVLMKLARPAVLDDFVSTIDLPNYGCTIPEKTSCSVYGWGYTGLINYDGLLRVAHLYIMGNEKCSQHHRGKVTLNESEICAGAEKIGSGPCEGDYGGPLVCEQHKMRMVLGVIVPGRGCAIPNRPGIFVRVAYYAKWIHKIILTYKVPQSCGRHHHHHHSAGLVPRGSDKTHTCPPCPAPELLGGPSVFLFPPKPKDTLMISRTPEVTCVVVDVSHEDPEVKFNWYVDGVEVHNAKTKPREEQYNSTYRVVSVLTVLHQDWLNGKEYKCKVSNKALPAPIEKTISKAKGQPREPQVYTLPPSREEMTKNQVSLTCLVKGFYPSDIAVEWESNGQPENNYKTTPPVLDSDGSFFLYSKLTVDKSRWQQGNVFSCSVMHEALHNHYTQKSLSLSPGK

binding result	Binder
binds	B1
binds	B2

Each binder was assayed against T2, recombinant mouse HGF (R&D Systems) (mouse, UniProt Q08048 33-728) in the same assay as above.
T2 construct: Bought protein, construct not described; also called rmHGF (R&D Systems); murine HGF
Procedure: as §1, §2

T2 sequence (Q08048 33-728 limits assumed): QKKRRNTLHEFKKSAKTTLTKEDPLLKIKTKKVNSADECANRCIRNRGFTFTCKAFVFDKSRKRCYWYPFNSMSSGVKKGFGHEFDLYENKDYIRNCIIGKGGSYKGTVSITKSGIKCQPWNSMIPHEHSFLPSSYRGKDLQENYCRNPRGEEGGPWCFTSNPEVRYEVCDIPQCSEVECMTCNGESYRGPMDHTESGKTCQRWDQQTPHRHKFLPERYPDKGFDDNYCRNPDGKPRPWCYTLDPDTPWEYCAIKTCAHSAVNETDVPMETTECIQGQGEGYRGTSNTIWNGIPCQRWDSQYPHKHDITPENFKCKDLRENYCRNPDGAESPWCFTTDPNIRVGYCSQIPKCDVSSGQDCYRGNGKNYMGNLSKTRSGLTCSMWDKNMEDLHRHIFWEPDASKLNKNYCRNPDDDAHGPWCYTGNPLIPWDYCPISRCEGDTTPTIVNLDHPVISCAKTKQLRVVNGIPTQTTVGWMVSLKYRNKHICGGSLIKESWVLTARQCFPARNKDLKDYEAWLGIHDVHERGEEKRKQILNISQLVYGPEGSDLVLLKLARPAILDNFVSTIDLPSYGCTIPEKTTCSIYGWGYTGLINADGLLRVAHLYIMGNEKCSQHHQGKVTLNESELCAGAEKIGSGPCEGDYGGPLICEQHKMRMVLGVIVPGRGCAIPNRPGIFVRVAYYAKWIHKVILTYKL

binding result	Binder
no binding	B1
binds	B2

Each binder was assayed against hHGF-Fc C561R (recombinant hHGF protein containing a cysteine to arginine substitution at position 561) (human) in the same assay as above.
Procedure: as §1, §2

Chain of hHGF-Fc C561R (recombinant hHGF protein containing a cysteine to arginine substitution at position 561) (human) (chain, as listed by the source C561R C561R limits assumed): as the sequence (chain, as listed by the source G555E G555E limits assumed) above, with E501G, C507R counted along it

binding result	Binder
binds	B1
binds	B2

Target: T1, recombinant human HGF (R&D Systems, …)
Test: cell-based or functional assay
Remark: another data set of the same source

IC50, neutralization of HGF stimulated BrdU incorporation in 4 MBr-5 cells	Binder
4.99 nM	B1
1.94 nM	B2

These binders were tested against T1, recombinant human HGF (R&D Systems, …) (assay: competition ELISA (DELFIA): antibody inhibits c-Met binding to plate-coated HGF).
Procedure: The plates then were blocked with 200 μL of 5% non-fat dry milk in PBS for 1 hour at room temperature. […] 100 μL of sample per well was transferred to the assay plate and incubated overnight at 4° C.
The resulting plates then were washed three times with PBS-0.1% Tween 20, and incubated for 1 hour at room temperature with Eu-labeled Streptavidin (Wallac, Catalog No. 1244-360) diluted 1:1000 in DELFIA assay buffer (Wallac, Catalog No. 4002-0010). The resulting plates were washed 3 times with DELFIA wash solution (Wallac, Catalog No. 4010-0010) and incubated with 100 μL/well DELFIA enhancement solution (Wallac #4001-0010) for 15 minutes at room temperature with agitation.
The plates were read on Victor³V instrument (Perkin Elmer) using the Europium method.

IC50	Binder
4.43 nM	B1
6.57 nM	B2

These binders were tested against T1, recombinant human HGF (R&D Systems, …) (assay: SPR (BIAcore T100), antibody captured on mouse anti-human immunoglobulin CM4 chip, HGF 1.88, 3.75 and 7.5 nM injected, 25 C).
Procedure: Antigen-binding affinity and kinetics of interaction were assessed by surface plasmon resonance technology using a BIAcore T100 instrument. Mouse anti-human immunoglobulins (Jackson ImmunoResearch Labs, 209-005-098) were immobilized on carboxymethylated dextran CM4 sensor chips (BIAcore, Catalog No. BR-1005-34) by amine coupling (BIAcore, Catalog No. BR-1000-50) using a standard coupling protocol according to manufacturer's recommendations. The analyses were performed at 25° C. using PBS (GIBCO, Catalog No. 14040-133) containing 0.05% surfactant P20 (BIAcore, Catalog No. BR-1000-54), 2 mg/mL BSA (EMD, Catalog No. 2930) and 10 mg/mL CM-Dextran Sodium salt (Fluka, Catalog No. 86524) as running buffer.
The antibodies were captured on individual flow cell at a flow rate of 10 μL/min. Injection time was variable for each antibody to yield approximately 20 RU of antibody captured for each cycle. […] The dissociation phase was monitored for 15 or 90 minutes, depending on concentration. The surface then was regenerated with 10 mM Glycine-HCl, pH 2.0 (BIAcore, Catalog No. BR-1003-55) injected for 3 minutes at a flow rate of 60 μL/min before another cycle was initiated. […] Determination of kinetic parameters was achieved using the kinetic function of the BIAevalutation software with reference subtraction.

koff	kon	Binder
0.0016 s⁻¹	2.4e+06 M⁻¹ s⁻¹	B3
0.0037 s⁻¹	7.8e+06 M⁻¹ s⁻¹	B4
2.7e-05 s⁻¹	2.3e+06 M⁻¹ s⁻¹	B5
1.7e-05 s⁻¹	3.1e+06 M⁻¹ s⁻¹	B6
3.8e-05 s⁻¹	2.6e+06 M⁻¹ s⁻¹	B7
0.0021 s⁻¹	7.1e+06 M⁻¹ s⁻¹	B8
1.1e-05 s⁻¹	2.4e+06 M⁻¹ s⁻¹	B9
3.9e-05 s⁻¹	2.8e+06 M⁻¹ s⁻¹	B10
5.9e-05 s⁻¹	2.2e+06 M⁻¹ s⁻¹	B11

These binders were tested against T1, recombinant human HGF (R&D Systems, …) (assay: SPR, antibody captured by anti-mouse Ig, HGF injected, 25 C).
Procedure: Rabbit anti-mouse immunoglobulins (BIAcore, Catalog No. BR-1005-14) were immobilized on carboxymethylated dextran CM5 sensor chips (BIAcore, Catalog No. BR-1006-68) by amine coupling (BIAcore, Catalog No. BR-1000-50) using a standard coupling protocol according to manufacturer's instructions. The analyses were performed at 25° C. using PBS (GIBCO, Catalog No. 14040-133) containing 0.05% surfactant P20 (BIAcore, Catalog No. BR-1000-54), 2 mg/mL BSA (EMD, Catalog No. 2930), and 10 mg/mL CM-Dextran Sodium salt (Fluka, Catalog No. 86524) as running buffer.
The antibodies were captured in an individual flow cell at a flow rate of 10 μL/min. Injection time was variable for each antibody to yield approximately 20 RU of antibody captured for each cycle. […] The dissociation phase was monitored for 15 or 90 minutes, depending on concentration. The surface then was regenerated with 10 mM Glycine-HCl, pH 1.7 (BIAcore, Catalog No. BR-1003-54) injected for 3 minutes at a flow rate of 60 μL/min before another cycle was initiated.
Kinetic parameters were determined using the kinetic function of the BIAevalutation software with reference subtraction.

Kd	koff	kon	Binder
0.0542 nM	8.2e-05 s⁻¹	1.7e+06 M⁻¹ s⁻¹	B1
0.0181 nM	2.6e-05 s⁻¹	1.5e+06 M⁻¹ s⁻¹	B2

From patent US20140178935A1 (AVEO PHARMACEUTICALS, published 2014)
